The labels stand for the following.
B1: SEQ ID NO 68 (receptor)
chain: MGHLPKPTLWAEPGSVITMDQPVTLRCQGGQETQEYRLYREKKTAPWITRIPQELVKKGQFPIPSITWEHAGRYRCYYGSDTSQWSASSDPLELVVTGVYIKPTLSAQPSPVVNSGGNVTLQCDSPFIADGFILCKEGEDEHPQCLNSQPHARGSSRAIFSVGPVSPSRRWWYRCYAYMSWSPYEWSLPSDLLELDVDG
B2: SEQ ID NO 35 (receptor)
chain: B1 chain with S83A, Q84G, W85R, A87E, P126Q, F127V, I128A, A129F, S180N, S182A
B3: SEQ ID NO 37 (receptor)
chain: MGHLPKPTLWAEPGSVITMDQPVTLRCQGGQETQEYRLYREKKTAPWITRIPQELVKKGQFPIPSITWEHAGRYRCYYGSDTAGRSESSDPLELVVTGVYIKPTLSAQPSPVVNSGGNVTLQCDSQVAFDGFILCKEGEDEHPQCLNSQPHARGSSRAIFSVGPVSPSRRWWYRCYAYPAWTPYEWSLPSDLLELDVDG
B4: SEQ ID NO 33 (receptor)
chain: B3 chain with P179V, T182A
B5: SEQ ID NO 31 (receptor)
chain: B3 chain with A180I
B6: soluble truncated variant of the Wild-Type ILT-2 molecule (receptor)
chain: MGHLPKPTLWAEPGSVITQGSPVTLRCQGGQETQEYRLYREKKTAPWITRIPQELVKKGQFPIPSITWEHAGRYRCYYGSDTAGRSESSDPLELVVTGAYIKPTLSAQPSPVVNSGGNVTLQCDSQVAFDGFILCKEGEDEHPQCLNSQPHARGSSRAIFSVGPVSPSRRWWYRCYAYDSNSPYEWSLPSDLLELLVL
notes: also called soluble wild-type ILT-2; soluble two domain form of the wild-type ILT-2
B7: SEQ ID NO 7 (receptor)
chain: MAGHLPKPTLWAEPGSVITMDQPVTLRCQGGQETQEYRLYREKKTAPWITRIPQELVKKGQFPIPSITWEHAGRYRCYYGSDTSQWSASSDPLELVVTGVYIKPTLSAQPSPVVNSGGNVTLQCDSQVAFDGFILCKEGEDEHPQCLNSQPHARGSSRAIFSVGPVSPSRRWWYRCYAYPIWTPYEWSLPSDLLELDVDG
B8: SEQ ID NO 38 (receptor)
chain: B7 chain with M20Q, D21G, Q22S, P180M, I181S, T183A
B9: SEQ ID NO 44 (receptor)
chain: B7 chain with I181A, W182Y
B10: SEQ ID NO 23 (receptor)
chain: B7 chain with P180V, I181E, T183L
B11: SEQ ID NO 30 (receptor)
chain: B7 chain with M20Q, D21G, Q22S
B12: SEQ ID NO 13 (receptor)
chain: B7 chain with I181A
B13: SEQ ID NO 53 (receptor)
chain: B7 chain with S188T, L189R, P190G
B14: SEQ ID NO 59 (receptor)
chain: B7 chain with P180D, I181S, W182N, T183S, L189S, P190G
B15: SEQ ID NO 55 (receptor)
chain: B7 chain with L189S, P190G
B16: SEQ ID NO 16 (receptor)
chain: B7 chain with G3Q, A129T, P180D, I181S, W182N, T183S
B17: SEQ ID NO 43 (receptor)
chain: B7 chain with P180M, I181S, W182Y, T183S
B18: SEQ ID NO 9 (receptor)
chain: B7 chain with P180M, I181N, T183A
B19: SEQ ID NO 15 (receptor)
chain: B7 chain with G3Q, A129S, P180D, I181S, W182N, T183S
B20: SEQ ID NO 47 (receptor)
chain: B7 chain with P180M, I181S, W182N, T183A
B21: SEQ ID NO 34 (receptor)
chain: B7 chain with M20Q, D21G, Q22S, P180M, I181N, T183A
B22: SEQ ID NO 56 (receptor)
chain: B7 chain with S188T, P190G
B23: SEQ ID NO 51 (receptor)
chain: B7 chain with P190G
B24: SEQ ID NO 58 (receptor)
chain: B7 chain with P180D, I181S, W182N, T183S, L189Q, P190M
B25: SEQ ID NO 32 (receptor)
chain: B7 chain with M20Q, D21G, Q22S, P180V, I181A, T183A
B26: SEQ ID NO 12 (receptor)
chain: B7 chain with P180V, I181S, W182Y, T183W
B27: SEQ ID NO 8 (receptor)
chain: B7 chain with P180V, I181A, T183A
B28: SEQ ID NO 45 (receptor)
chain: B7 chain with P180M, I181S, W182N, T183S
B29: SEQ ID NO 57 (receptor)
chain: B7 chain with P180D, I181S, W182N, T183S, S188T, L189R, P190G
B30: SEQ ID NO 48 (receptor)
chain: B7 chain with P180D, I181S, T183A
B31: SEQ ID NO 14 (receptor)
chain: B7 chain with G3Q, A129D, P180D, I181S, W182N, T183S
B32: SEQ ID NO 36 (receptor)
chain: B7 chain with M20Q, D21G, Q22S, I181A
B33: SEQ ID NO 54 (receptor)
chain: B7 chain with L189T, P190S
B34: SEQ ID NO 10 (receptor)
chain: B7 chain with P180T, I181D, W182Y, T183S
B35: SEQ ID NO 40 (receptor)
chain: B7 chain with M20Q, D21G, Q22S, P180M, I181S, T183S
B36: SEQ ID NO 21 (receptor)
chain: B7 chain with I181W, W182F
B37: SEQ ID NO 17 (receptor)
chain: B7 chain with G3Q, F130Y, P180D, I181S, W182N, T183S
B38: SEQ ID NO 11 (receptor)
chain: B7 chain with P180V, I181D, T183F
B39: SEQ ID NO 46 (receptor)
chain: B7 chain with P180D, I181S, T183S
B40: SEQ ID NO 52 (receptor)
chain: B7 chain with L189Q, P190M
B41: SEQ ID NO 20 (receptor)
chain: B7 chain with I181D, W182F
B42: SEQ ID NO 18 (receptor)
chain: B7 chain with P180M, I181S, T183A

Residue numbers refer to the chain shown, from its start.

What is called Kd is the free concentration of one partner at which half of the binding sites on the other are occupied at equilibrium, for simple one-to-one binding. As a reminder, the koff is the first-order rate constant of dissociation.

In this test the target is T1, CEA-derived … (SEQ ID NO: 71)-HLA-A*0201 complex (biotin on the C-terminal biotinylation tag (enzymatic, BirA)).
T1 construct: also called soluble biotinylated HLA-A2-peptide complex; not shown: C-terminal biotinylation tag that replaces the transmembrane and cytoplasmic domains
Briefly: Biacore SPR, pMHC immobilised. As for the experimental part:
SPR measures changes in refractive index expressed in response units (RU) near a sensor surface within a small flow cell, a principle that can be used to detect receptor ligand interactions and to analyse their affinity and kinetic parameters. The probe flow cells were prepared by immobilising the pMHC complexes in flow cells via biotin-tag binding. The assay was then performed by passing soluble ILT over the surfaces of the different flow cells at a constant flow rate, measuring the SPR response in doing so.
For orientation: Surface plasmon resonance follows binding to a sensor surface in real time, without labels.
Take B1: the dissociation constant (Kd) was at most 1000 nM and the off-rate constant (koff) was at most 2 s⁻¹.

As for B2, the dissociation constant (Kd) was at most 1000 nM and the koff was at most 2 s⁻¹.

As for B3, the equilibrium dissociation constant (Kd) is at most 1000 nM and the koff is at most 2 s⁻¹.

B4 came in with a Kd of at most 1000 nM and an off-rate (koff) of at most 2 s⁻¹.

Consider B5, for which the equilibrium dissociation constant (Kd) is at most 1000 nM and the koff was at most 2 s⁻¹.

Take B6: the Kd was about 6000 nM and the off-rate constant (koff) was determined as 2.4 s⁻¹.

Regarding B7, the Kd is at most 1000 nM and the koff was at most 2 s⁻¹.

In turn, B8 gave a Kd of at most 1000 nM and an off-rate constant (koff) of at most 2 s⁻¹.

In turn, B9 displayed a Kd of at most 1000 nM and a koff of at most 2 s⁻¹.

B10 yielded a Kd of at most 1000 nM and a koff of at most 2 s⁻¹.

B11 came in with a dissociation constant Kd of at most 1000 nM and a koff of at most 2 s⁻¹.

Molecule B12 showed a dissociation constant (Kd) of at most 1000 nM and a koff of at most 2 s⁻¹.

As for B13, the Kd was at most 1000 nM and the off-rate constant (koff) is at most 2 s⁻¹.

In the case of B14, the Kd is at most 1000 nM and the off-rate constant (koff) is at most 2 s⁻¹.

Molecule B15 yielded a Kd of at most 1000 nM and a koff of at most 2 s⁻¹.

In turn, B16 registered a Kd of at most 1000 nM and a koff of at most 2 s⁻¹.

Take B17: the Kd was at most 1000 nM and the koff is at most 2 s⁻¹.

B18: the Kd is at most 1000 nM and the off-rate (koff) was at most 2 s⁻¹.

Regarding B19, the Kd was at most 1000 nM and the koff was at most 2 s⁻¹.

On to B20, for which the dissociation constant Kd was at most 1000 nM and the dissociation rate constant (koff) is at most 2 s⁻¹.

Molecule B21 registered a dissociation constant Kd of at most 1000 nM and an off-rate (koff) of at most 2 s⁻¹.

For B22, the Kd is at most 1000 nM and the koff was at most 2 s⁻¹.

As for B23, the Kd was at most 1000 nM and the off-rate (koff) was at most 2 s⁻¹.

B24 displayed a dissociation constant Kd of at most 1000 nM and an off-rate constant (koff) of at most 2 s⁻¹.

For B25, the dissociation constant (Kd) is at most 1000 nM and the off-rate constant (koff) was at most 2 s⁻¹.

Molecule B26 showed a Kd of at most 1000 nM and a koff of at most 2 s⁻¹.

On to B27, for which the Kd was at most 1000 nM and the koff is at most 2 s⁻¹.

Molecule B28 had a Kd of at most 1000 nM and a koff of at most 2 s⁻¹.

B29 gave a Kd of at most 1000 nM and a koff of at most 2 s⁻¹.

B30 returned a dissociation constant (Kd) of at most 1000 nM and a koff of at most 2 s⁻¹.

B31 displayed a Kd of at most 1000 nM and an off-rate (koff) of at most 2 s⁻¹.

The molecule B32 yielded a dissociation constant (Kd) of at most 1000 nM and a koff of at most 2 s⁻¹.

Turning to B33, the Kd was at most 1000 nM and the dissociation rate constant (koff) is at most 2 s⁻¹.

B34 had a Kd of at most 1000 nM and a koff of at most 2 s⁻¹.

In the case of B35, the Kd was at most 1000 nM and the koff is at most 2 s⁻¹.

In turn, B36 yielded a Kd of at most 1000 nM and an off-rate (koff) of at most 2 s⁻¹.

Molecule B37 gave a Kd of at most 1000 nM and a koff of at most 2 s⁻¹.

B38: the Kd was at most 1000 nM and the dissociation rate constant (koff) was at most 2 s⁻¹.

In turn, B39 registered a Kd of at most 1000 nM and a dissociation rate constant (koff) of at most 2 s⁻¹.

Turning to B40, the dissociation constant (Kd) was at most 1000 nM and the off-rate (koff) was at most 2 s⁻¹.

In the case of B41, the Kd is at most 1000 nM and the koff is at most 2 s⁻¹.

For the molecule B42, the Kd is at most 1000 nM and the koff was at most 2 s⁻¹.

The values are drawn from patent US20110172168A1 (MEDIGENE, published 2011).
